Blank lines part the entries; values can stand above or below the molecule they belong to.
How the values were obtained:
[1] = molecular target: MICA extracellular domain (α1-α3 domains), allele not stated (human) (UniProt Q29983); assay: fluorescence ELISA (DELFIA): immobilized MICA extracellular domain, antibody titrated, biotinylated anti-mouse IgG + Europium-streptavidin
[2] = molecular target: T1, MICA extracellular domain (α1-α3 domains), allele not stated (human, UniProt Q29983 24-307); assay: as above
T1 construct: extracellular domain; also called MICA α1-α3 domains; full-length extracellular domain
T1 sequence (looked up): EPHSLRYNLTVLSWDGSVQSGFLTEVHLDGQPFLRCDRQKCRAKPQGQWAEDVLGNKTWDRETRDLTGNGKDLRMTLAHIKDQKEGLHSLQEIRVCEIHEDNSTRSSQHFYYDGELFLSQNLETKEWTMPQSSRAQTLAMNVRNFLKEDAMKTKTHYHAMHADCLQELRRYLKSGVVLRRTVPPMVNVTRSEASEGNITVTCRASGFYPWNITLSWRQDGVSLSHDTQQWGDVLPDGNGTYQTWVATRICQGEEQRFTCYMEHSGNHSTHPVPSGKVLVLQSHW

EC50 [1]: 1 µg/mL
Molecule: mAb 6D4 (anti-MICA/B antibody, clone 6D4, Biolegend; specific for the MICA α1-α2 domains)

EC50 [2]: 1 µg/mL
B1: mAb 7C6 (parental murine IgG2b monoclonal antibody specific for the MICA/B α3 domain) (antibody, V domains shown)
VH: QIQLVQSGPELKKPGETVKVSCKASGYMFTNYAMNWVKQAPEKGLKWMGWINTHTGDPTYADDFKGRIAFSLETSASTAYLQINNLKNEDTATYFCVRTYGNYAMDYWGQGTSVTVSS
VL: DIQMTQTTSSLSASLGDRVTISCSASQDISNYLNWYQQKPDGTVKLLIYDTSILHLGVPSRFSGSGSGTDYSLTISNLEPEDIATYYCQQYSKFPRTFGGGTTLEIK
notes: Mouse hybridoma antibody; also called 7C6 mAb; 7C6-mIgG2b
